Measured values: paper PMC11136987 (2024)

Assays:
[1] = target: recombinant full-length ASC (UniProt Q9ULZ3 1-195); test: BLI
[2] = target: recombinant full-length HAX-1 (UniProt O00165 1-279); test: BLI
Sequence of recombinant full-length HAX-1 (O00165 whole entry): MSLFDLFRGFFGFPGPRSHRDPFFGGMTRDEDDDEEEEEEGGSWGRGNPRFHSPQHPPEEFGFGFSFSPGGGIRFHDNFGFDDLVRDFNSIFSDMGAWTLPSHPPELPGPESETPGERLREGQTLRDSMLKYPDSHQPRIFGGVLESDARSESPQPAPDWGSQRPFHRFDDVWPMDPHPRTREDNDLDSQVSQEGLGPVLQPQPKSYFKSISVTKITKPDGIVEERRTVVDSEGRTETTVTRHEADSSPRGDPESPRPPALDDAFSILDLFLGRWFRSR

Sequence of recombinant full-length ASC (Q9ULZ3 whole entry): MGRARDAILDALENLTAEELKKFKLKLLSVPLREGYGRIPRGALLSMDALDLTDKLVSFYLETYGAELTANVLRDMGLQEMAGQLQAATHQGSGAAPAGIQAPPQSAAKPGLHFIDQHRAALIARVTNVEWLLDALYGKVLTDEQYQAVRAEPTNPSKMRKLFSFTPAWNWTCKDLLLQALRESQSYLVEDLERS

B1: recombinant partial NLRP3 1-536aa (domain or fragment)
chain: MKMASTRCKLARYLEDLEDVDLKKFKMHLEDYPPQKGCIPLPRGQTEKADHVDLATLMIDFNGEEKAWAMAVWIFAAINRRDLYEKAKRDEPKWGSDNARVSNPTVICQEDSIEEEWMGLLEYLSRISICKMKKDYRKKYRKYVRSRFQCIEDRNARLGESVSLNKRYTRLRLIKEHRSQQEREQELLAIGKTKTCESPVSPIKMELLFDPDDEHSEPVHTVVFQGAAGIGKTILARKMMLDWASGTLYQDRFDYLFYIHCREVSLVTQRSLGDLIMSCCPDPNPPIHKIVRKPSRILFLMDGFDELQGAFDEHIGPLCTDWQKAERGDILLSSLIRKKLLPEASLLITTRPVALEKLQHLLDHPRHVEILGFSEAKRKEYFFKYFSDEAQARAAFSLIQENEVLFTMCFIPLVCWIVCTGLKQQMESGKSLAQTSKTTTAVYVFFLSSLLQPRGGSQEHGLCAHLWGLCSLAADGIWNQKILFEESDLRNHGLQKADVSAFLRMNLFQKEVDCEKFYSFIHMTFQEFFAAMYYLL
modifications: biotinylated (sites not given)
[1]
  Kd: 7.33 nM
[2]
  Kd: 3.38 nM
